Experimental data as given in the supplement of paper PMC12042874.
± gives the uncertainty stated by the source.

Assay: amyloid nucleation score (Sup35N fusion, yeast selection) (log enrichment); library NNK3; higher = more nucleation; inactive = no reads after selection
Procedure, shortened: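 Libraries of peptides of 20 random codons fused to Sup35N were expressed in psi-negative yeast and induced 24 hours with 100 μM copper sulfate. Selection was 7 days at 30°C on medium lacking adenine and uracil, and plasmid inserts were Illumina-sequenced before and after selection. Nucleation score is the DiMSum log enrichment of output over input reads, centred on the mode score of non-aggregating sequences, and sequences with under 100 input reads were left out.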

Substance | amyloid nucleation score
FILRLVEVSNFCTRYRNAYS | inactive
LCIGVDLKPCYGSVDRYVNL | inactive
FESSGAGRFRSIWYGYMRVF | inactive
HVLLDPEIITA | inactive
SHLSYYTFKWSSEATRAVPM | 1.82 ± 0.11
NINYSPFISAQVGLIMAPLN | inactive
NGPVGN | inactive
APIKIRFD | inactive
RFIVCCKTGCVY | inactive
SRYMARTSDPARYVTPVSNT | inactive
FGVVDYARRSWGYGSCGGHV | inactive
NRTRCGDYILGCQSSFDTCH | inactive
GDSLWIFTAGIDCSYRLIFD | inactive
MNTRAVSVEFRYCARYFCHA | 0.142 ± 0.93
GHRRVVSLCYTYMRWI | inactive
NTCMQPCLSRVCFELDVGCR | inactive
LFRFGI | -0.005 ± 0.22
VQLIWDFYSCSN | inactive
SGCYNYFCGFLLKYSMYVSL | inactive
GIGILEVWVSVRYGSWFKRI | inactive
WMFVRGDAGLRFVGG | 1.05 ± 0.21
CFAVWHISVEMYVRDRW | inactive
TTVMLTKLYMFEGPNRFTAL | 0.961 ± 0.084

Substance | amyloid nucleation score
CWKQGLNRYLWW | 0.752 ± 0.13
FFLNLKDMFDHAL | inactive
LVFFFLWHSHENFNHDLVSK | inactive
WKSPVYAYVWNSGPFRRQGK | inactive
ELPLSSCNRCGECYGLAIVA | inactive
MRRCDVWKIYGYMLSPPLPR | inactive
LCTNLYWVQFIMEPEEGVIQ | 1.54 ± 0.082
SVVQIHAERYE | inactive
ILVLRHA | inactive
PNKDSLWDPFKQQSRSEK | -0.455 ± 0.93
VSHSAFVLNSCERE | inactive
SCTYVSFVSSVRVTA | inactive
VYTMVTMIDGIELFRWNLWS | inactive
VIPFPFNLGDYCRMFDPRRS | inactive
RMVRRDRNKYSILLGLVMSN | inactive
YALMLVFERHSRAARSVGMG | inactive
GVYMLLDVPYGTASTSAMGS | inactive
RMIRNIFGSHAVLCFGCKC | 2.9 ± 0.068
LDNKFSALGCFANARFK | inactive
RDMYLLLREHGKGTIGKPWG | inactive
LPVHLDNMCFHVVRAEESRR | inactive
NQYQSLSRRCSAGALGALVV | inactive
TKNDRN | inactive

Substance | amyloid nucleation score
IDNMMYVV | inactive
VKTNVCTTYGHY | inactive
YDCWFPHLSECLQLDTIFKA | inactive
RHRQSPYIINSVVIFGNQGT | 2.5 ± 0.067
LTYTHLCEPSEFR | inactive
KILRRNTWNMFPAALCGVSF | 0.997 ± 0.21
SFLLFYVLRYP | inactive
DAPVVTVRAGNAGNHSMIPW | inactive
LTTRGRNTRSEDMGEPGLWA | inactive
WSISIGYFP | inactive
TVTHLFGHRVGMSLVFNSTY | inactive
RMAEVFLLIDCNFFYFDRYM | 2.02 ± 0.092
SQFLLYTVQQFRWTACHVAF | inactive
LESEASGYKMSKVRVAQCRR | inactive
HHGWVVYNWVDKVINSHIVG | 0.478 ± 0.28
YRVKPFKWKYARRRLVIRWV | inactive
SYCKATRSVRQSNSARVVVR | inactive
CFHVILFK | 1.11 ± 0.095
AVSSVLIHALYLVGMLPPSN | 1.83 ± 0.092
CLSTFLGRSEKPL | inactive
CLALSGIIIFELKAYLGSWC | 1.27 ± 0.12
CDFIHCLVCFLPIWKSCGTE | 0.732 ± 0.34
TRILGYIFGAVSIVWLGVER | inactive

Substance | amyloid nucleation score
GFKFKYSYRIDLWEGHWVVR | inactive
ILCLVAVLGASRGYVMAEWY | inactive
SVIAMYQFVYYYVSKMVNID | inactive
VGPALNVVSWELV | inactive
LINVELYLPGLRRIWAPSSG | 0.221 ± 0.54
TVTVQYTG | inactive
RHQDYLHADGLNMAISITRI | inactive
AENINCKMM | 1.45 ± 0.12
RGKLFLSLLIVYFTLFLSVM | inactive
HSSVSMGLVGGSTE | inactive
SVQLGIKNVITLRSYVYKTW | -0.208 ± 0.6
LWRDSGTITDGFECFSME | inactive
ASAYGSSLYSRFTVEYNSII | 0.223 ± 0.38
GCWECPTYQMLCTRVCLTWT | inactive
NLGSCVRVGQWISPRRA | inactive
LFYFVWRVYKFILWSG | inactive
NGLVQSMFVIRSLAQRNERR | inactive
KNKYQLN | inactive
GNHQSRYSFVP | inactive
YGNLFSYAVMSRDLVSWGPV | inactive
ANCVALTIVSYQVARDMKSK | 1.36 ± 0.087
LKLYQAAL | inactive
NYLNTVPVPGGPMVCMQHRI | inactive

Substance | amyloid nucleation score
GNYVTVHIYVKAVFGNG | inactive
FNSYGKLWYFESKDRVYACD | -0.462 ± 1.4
STCMFVGSDSRVRVRYIDIC | inactive
YSWSMLL | 0.077 ± 0.54
FVSPYRNHVGVGSDADWGFR | inactive
GSEMVAGHS | inactive
LSMCSLHRNTVFWFRISLMI | inactive
QYLEAWRCTHFTVGALLLMG | inactive
SMSPTKLYSSIMVNSWEWLF | inactive
LTCWSVVMFTCHP | inactive
PKCRMSMA | inactive
HYAASSLYLTATHGFICSMC | 1.73 ± 0.073
IRTARNTEETMVVACMTVGV | inactive
PGRYFMHLLELV | inactive
RFYRCNYYRM | 2.17 ± 0.084
WCDYMKNPCSFEGKFLWRWP | inactive
DICRFNWMFHF | 1.3 ± 0.11
NTGCSDNFESFCLKATVHWV | inactive
KTSIRRCLSIRC | inactive
LIRAVGFGGWILIAHWYIWN | inactive
WKWVRRYVRATIRSYSKDLD | inactive
TEGKAVSEV | inactive
GCFSCVCLP | inactive

Substance | amyloid nucleation score
SLVYMWPDGTFLRWMGAWH | inactive
KSERLNLVGILVSLVRPVCL | inactive
FWNVCLDCISR | inactive
FWSLNIQGSNYFLHIVNIGR | inactive
FKKSLYVLSDFSVLYSMCSW | inactive
GIRVHGNFYMNSGSSTGG | 1.49 ± 0.073
APAKTYIACC | inactive
NAYLCGWL | inactive
HSSMIIRLWLDVVVQIRGQ | 0.575 ± 0.28
FYLGRLSVNGRVVQRHNESM | inactive
ASVYTN | inactive
IVTLCSIFDFAFVVTASTMG | 1.13 ± 0.16
MHSISV | inactive
ICGCPTYCNEANLLLERN | inactive
CPNMPSSTGTKPSNVMVSFS | inactive
NTHMRAIMNPLDVSVPRPHK | inactive
EAHGIQLMMGLFAFR | 1.11 ± 0.15
GDMFDWFSGELVFRMRNILC | -0.917 ± 1.1
YGPQGVGLMGSLIAVISFIR | 1.12 ± 0.16
RMDNCSGDI | inactive
NLPLKFDTFTFLCVRLNSLS | inactive
RWNSISI | inactive
SKMLIWSYLHGGNRCDLSDW | inactive

Substance | amyloid nucleation score
FWLGDM | inactive
TMAYGAPLPHSTSYYITIMS | inactive
SINRTKQCLEVNFHLDDCKA | inactive
LWKMILGTFMTQMCL | inactive
LAMAPITKSSKLMLAFMR | inactive
INYIIVSGSAGIRMTGK | 2.52 ± 0.064
FSSMQDWSFGIYLNSEAPPT | inactive
EVVAAYHPATDTSDRERKAL | inactive
GDFSSCL | inactive
YINSATRFDKFM | inactive
ENERGKKMSLGYGLELAGTG | inactive
SRTLIIIVYFTTNIIVLEFY | inactive
SVNSGVMIAEPDLRWCGSAT | inactive
QNHSNVGTFDDSA | inactive
VIKVWLLCRRIVSVQFLAP | inactive
IYGNSFPEGIHRTGWESYHR | inactive
VLFKYTSRIMDCVKTLKPLK | inactive
ASFISCSIMYYFIVFCL | inactive
SRWTCLNFVWSTSQHLQWN | inactive
TFFTGKIRNKAVFEDSSYCK | inactive
VVDKILITINRSLLLSGADN | inactive
